Test results from US20140315800A1 (published 2014).
Positions of bridges follow the written chain, without caps; N, C: chain ends. No end group written: not given here. *: point of attachment. βGlcNAc = CC(=O)N[C@@H]1[C@@H](O)[C@H](O)[C@@H](CO)O[C@H]1*; diGlcNAc = diGlcNAc sugar chain; disialo = disialo sugar chain; GlcNAc = N-acetylglucosamine

What was measured:
[1] = target: T1, SSTR3 (Human, UniProt P32745 1-418); assay: radioligand competition, membranes
[2] = target: SSTR1-SSTR5; assay: radioligand competition, membranes
[3] = target: SSTR2 (Human, UniProt P30874 1-369); assay: cell-based or functional assay
[4] = target: SSTR5 (Human, UniProt P35346 1-364); assay: radioligand competition, membranes
[5] = target: T2, SSTR4 (Human, UniProt P31391 1-388); assay: cell-based or functional assay
[6] = target: T2, SSTR4; assay: cell-based or functional assay; remark: listed apart in the source
[7] = target: T1, SSTR3; assay: cell-based or functional assay
[8] = target: T3, SSTR1 (Human, UniProt P30872 1-391); assay: cell-based or functional assay
[9] = target: T3, SSTR1; assay: radioligand competition, membranes

T1 sequence (P32745 whole entry): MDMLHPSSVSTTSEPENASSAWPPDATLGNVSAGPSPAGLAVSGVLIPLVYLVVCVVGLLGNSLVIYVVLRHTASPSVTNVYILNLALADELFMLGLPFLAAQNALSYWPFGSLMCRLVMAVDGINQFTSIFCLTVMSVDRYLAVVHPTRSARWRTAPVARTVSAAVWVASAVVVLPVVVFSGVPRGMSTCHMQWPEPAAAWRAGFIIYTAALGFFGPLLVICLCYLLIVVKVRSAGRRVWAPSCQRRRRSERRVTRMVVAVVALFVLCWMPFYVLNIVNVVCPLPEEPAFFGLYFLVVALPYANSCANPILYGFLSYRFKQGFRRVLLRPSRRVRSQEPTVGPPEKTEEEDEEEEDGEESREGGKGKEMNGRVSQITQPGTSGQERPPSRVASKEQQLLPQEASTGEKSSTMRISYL
SSTR2, sequence (P30874 whole entry): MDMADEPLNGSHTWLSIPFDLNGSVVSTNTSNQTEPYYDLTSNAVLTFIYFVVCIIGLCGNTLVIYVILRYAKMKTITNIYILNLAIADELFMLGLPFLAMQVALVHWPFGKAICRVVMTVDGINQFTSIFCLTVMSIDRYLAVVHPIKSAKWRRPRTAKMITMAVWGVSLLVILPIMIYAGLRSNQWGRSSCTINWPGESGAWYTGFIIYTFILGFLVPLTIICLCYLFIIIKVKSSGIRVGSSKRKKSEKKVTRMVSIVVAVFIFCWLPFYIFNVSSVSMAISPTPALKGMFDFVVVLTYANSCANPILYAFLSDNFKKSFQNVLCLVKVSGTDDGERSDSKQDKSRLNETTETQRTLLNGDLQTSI
T2 sequence (P31391 whole entry): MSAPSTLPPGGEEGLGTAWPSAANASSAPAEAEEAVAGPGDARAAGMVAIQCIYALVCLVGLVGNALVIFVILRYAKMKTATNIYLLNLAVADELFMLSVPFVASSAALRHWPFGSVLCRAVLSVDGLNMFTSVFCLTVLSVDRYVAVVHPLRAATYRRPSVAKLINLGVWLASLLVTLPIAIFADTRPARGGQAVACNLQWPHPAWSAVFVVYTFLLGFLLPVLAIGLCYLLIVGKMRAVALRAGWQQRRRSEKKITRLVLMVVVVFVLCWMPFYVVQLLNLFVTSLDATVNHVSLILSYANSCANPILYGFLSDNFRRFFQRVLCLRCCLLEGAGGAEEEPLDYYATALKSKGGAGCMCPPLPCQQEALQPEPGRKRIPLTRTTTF
SSTR5, sequence (P35346 whole entry): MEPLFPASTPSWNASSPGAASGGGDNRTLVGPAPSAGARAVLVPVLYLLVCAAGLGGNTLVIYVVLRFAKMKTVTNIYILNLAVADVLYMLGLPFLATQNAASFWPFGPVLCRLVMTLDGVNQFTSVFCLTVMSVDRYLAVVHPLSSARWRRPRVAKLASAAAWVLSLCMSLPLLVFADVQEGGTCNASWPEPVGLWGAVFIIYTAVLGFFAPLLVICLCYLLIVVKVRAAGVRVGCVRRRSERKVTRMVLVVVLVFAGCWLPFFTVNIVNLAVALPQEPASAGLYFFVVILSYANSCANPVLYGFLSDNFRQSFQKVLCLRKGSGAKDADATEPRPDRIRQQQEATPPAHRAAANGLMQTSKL
T3 sequence (P30872 whole entry): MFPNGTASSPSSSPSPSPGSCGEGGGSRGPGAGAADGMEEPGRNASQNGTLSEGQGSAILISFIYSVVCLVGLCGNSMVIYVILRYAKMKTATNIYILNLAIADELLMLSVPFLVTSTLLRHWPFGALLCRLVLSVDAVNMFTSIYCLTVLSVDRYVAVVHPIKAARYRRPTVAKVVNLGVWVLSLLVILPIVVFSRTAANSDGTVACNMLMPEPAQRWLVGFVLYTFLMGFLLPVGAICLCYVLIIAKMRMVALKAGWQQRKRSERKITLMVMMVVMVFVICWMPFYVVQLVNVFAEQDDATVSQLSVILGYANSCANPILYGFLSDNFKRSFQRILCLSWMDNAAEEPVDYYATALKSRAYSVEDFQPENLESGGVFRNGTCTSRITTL

Binder: SANSC(disialo)PAMC(disialo)PRERKAGCKNFFWKTFTSC (disulfide 17-28) [N5C(disialo)•A9C(disialo)-SRIF28]
- binding result [1]: binds

Binder: C(disialo sugar chain)ANSC(disialo sugar chain)PAMAPRERKAGCKNFFWKTFTSC (disulfide 17-28) [S1C(disialo)•N5C(disialo)-SRIF28]
- ratio of Ki to the Ki of unglycosylated SRIF14 [2]: 15.7

Binder: C(disialo)ANSNPAMAPRERKAGCKC(GlcNAc)FFWKTFTSC (disulfide 17-28) [S1C(disialo)•N19C(GlcNAc)-SRIF28]
- IC50 of agonist activity (cAMP) [3]: 0.08 nM

Binder: SANSNPAMAPRERKAGCKNFFWKTFC(disialo sugar chain)SC (disulfide 17-28) [T26C(disialo)-SRIF28]
- IC50 [4]: 400 nM

Binder: C(diGlcNAc)ANSNPAMAPRERKAGCKNFFWKTFTSC (disulfide 17-28) [S1C(diGlcNAc)-SRIF28]
- IC50 of agonist activity (cAMP) [5]: 0.05 nM

Binder: C(βGlcNAc)ANSNPAMAPRERKAGCKNFFWKTFTSC (disulfide 17-28) [S1C(GlcNAc)-SRIF28]
- IC50 of agonist activity (cAMP) [3]: 0.04 nM

Binder: C(disialo)RKAGCKNFFWKTFTSC (disulfide 6-17) [C(disialo)-R-K-SRIF14]
- IC50 of cAMP production suppression (agonist activity) [6]: 0.05 nM

B1: C(disialo)-SRIF14 (peptide)
peptide: CAGCKNFFWKTFTSC
modifications: disialo sugar chain on Cys added at the N-terminus of SRIF14; disulfide Cys17-Cys28 (SRIF28 numbering)
- IC50 of agonist activity (cAMP) [5]: 0.1 nM

B2: S1-3C(asialo)-SRIF28 (peptide)
peptide: CCCANSNPAMAPRERKAGCKNFFWKTFTSC
modifications: Ser 1 replaced by three consecutive Cys each with an asialo sugar chain; disulfide Cys17-Cys28 (SRIF28 numbering)
- IC50 of agonist activity (cAMP) [5]: 0.1 nM

B3: S1-5C(disialo)-SRIF28 (peptide)
peptide: CCCCCANSNPAMAPRERKAGCKNFFWKTFTSC
modifications: Ser 1 replaced by five consecutive Cys each with a disialo sugar chain; disulfide Cys17-Cys28 (SRIF28 numbering)
- IC50 of agonist activity (cAMP) [7]: 2 nM
- IC50 of agonist activity (cAMP) [8]: 18 nM
- IC50 of agonist activity (cAMP) [5]: 0.27 nM
- IC50 of agonist activity (cAMP) [3]: 0.81 nM

Binder: C(disialo)KAGCKNFFWKTFTSC (disulfide 5-16) [C(disialo)-K-SRIF14]
- IC50 of agonist activity (cAMP) [7]: 0.1 nM

Binder: C(disialo)C(disialo)C(disialo)C(disialo)C(disialo)C(disialo)C(disialo)C(disialo)C(disialo)C(disialo)ANSNPAMAPRERKAGCKNFFWKTFTSC (disulfide 26-37) [S1-10C(disialo)-SRIF28]
- IC50 [4]: 34.8 nM

B4: 3C(disialo)-R-K-SRIF14 (peptide)
peptide: CCCRKAGCKNFFWKTFTSC
modifications: three N-terminal Cys each with a disialo sugar chain (Cys-Cys-Cys-Arg-Lys- added to SRIF14); disulfide Cys17-Cys28 (SRIF28 numbering)
- Ki [9]: 270 nM
